Columns and labels:
C-PAE cells [1] = experiment: Total protein synthesis, 35S-methionine incorporation; type: cell-based, bovine
Method: Primary human renal epithelial cells (HRE) were purchased from Clonetics (San Diego, Calif., USA) and were maintained in REGM (Clonetics Corp.). Other cell lines were obtained and maintained as described above. Cells were serum-starved for 24 hrs (0.5% FCS), stimulated with 10% FCS in the presence of T3 peptide, Tumstatin-44-131, endostatin or rapamycin for 12-24 hours. After pre-incubation of cells in methionine-free media for 1 hour, cells were labeled with ^35S-methionine for 1 hour and incorporation of radioactivity into trichloracetic acid precipitates was analyzed (Sudhakar, A. et al., 2000, Biochem. 39:12929-38; Maeshima, Y. et al., 1996, J. Amer. Soc. Nephrol. 7:2219-29). ANOVA with a one-tailed Student's t test was used to identify significant differences in multiple comparisons in the present study. A level of P<0.05 was considered statistically significant.

C-PAE cells [2] = experiment: Cell cycle analysis (propidium iodide, flow cytometry); type: cell-based, bovine; details: 10% FBS
C-PAE cells [3] = experiment: BrdU incorporation proliferation assay; type: cell-based, bovine; details: 0-2.0 μM
Method: The anti-proliferative affect of Tumstatin-44-131 on C-PAE cells was examined via BrdU incorporation assay. This assay uses bromodeoxyuridine (BrdU) instead of ^3H-thymidine as a thymidine analog. BrdU is incorporated into newly synthesized DNA strands in actively proliferating cells. The BrdU incorporated into the cells can then be detected immunochemically. The assay was conducted using the BrdU proliferation assay kit (CalbioChem, San Diego, Calif., USA) according to the manufacturer's instructions, with some modifications. C-PAE cells were seeded onto 96-well plates in DMEM containing 10% FCS. The next day, the medium was replaced with DMEM containing 2% FCS with or without E. Coli-expressed Tumstatin-44-131, or full-length Tumstatin expressed in 293 cells. The plates were then incubated for 46 hours, and the cells were then pulsed for two hours with 10 nM BrdU. The cells and DNA were then fixed to the wells, reacted with anti-BrdU primary and secondary antibodies, and then developed with a calorimetric reaction supplied with the kit. The plates were then read at OD450 on a plate reader (Molecular Dynamics, Sunnyvale, Calif., USA).

PC-3 cells = experiment: Annexin V-FITC apoptosis assay; type: cell-based, human
Method: Annexin V-FITC Labeling. In order to establish apoptosis as the potential mode of action for Canstatin, Annexin V-FITC was used to label externalized phosphatidylserine (PS), to assess apoptotic cells. 0.5×10^6 C-PAE cells, PC-3, 786-O and HEK 293 cells were added to each well of a 6 well tissue culture plate in 10% FBS supplemented DMEM (BioWhittaker, Walkersville, Md., USA) overnight. The next day, fresh medium was added to all wells together with 40 ng/ml TNF-α (positive control) or 15 μg/ml Canstatin. Control cells received an equal volume of PBS. After 24 hours of treatment, medium containing detached cells was collected and attached cells were trypsinized and combined with detached cells and centrifuged at 3,000×g. Cells were then washed and phosphatidyl-serine externalization (an early apoptotic indicator) was measured by labeling with FITC-labeled annexin V (Clontech, Palo Alto, Calif., USA) according to the manufacturer's instructions. Annexin V-FITC-labeled cells were counted using a FAC Star Plus flow cytometer (Becton-Dickenson, Waltham, Mass., USA). For each treatment 15,000 cells were counted and stored in listmode. […] Annexin V-FITC labeled cells were counted using a FACStar Plus flow cytometer (Becton-Dickinson, Waltham, Mass., USA). For each treatment, 15,000 cells were counted and stored in listmode.

786-O cells = experiment: Annexin V-FITC apoptosis assay; type: cell-based, human; details: 15 μg/ml
Method: (§1) Annexin V-FITC Labeling. In order to establish apoptosis as the potential mode of action for Canstatin, Annexin V-FITC was used to label externalized phosphatidylserine (PS), to assess apoptotic cells. 0.5×10^6 C-PAE cells, PC-3, 786-O and HEK 293 cells were added to each well of a 6 well tissue culture plate in 10% FBS supplemented DMEM (BioWhittaker, Walkersville, Md., USA) overnight. The next day, fresh medium was added to all wells together with 40 ng/ml TNF-α (positive control) or 15 μg/ml Canstatin. Control cells received an equal volume of PBS. After 24 hours of treatment, medium containing detached cells was collected and attached cells were trypsinized and combined with detached cells and centrifuged at 3,000×g. Cells were then washed and phosphatidyl-serine externalization (an early apoptotic indicator) was measured by labeling with FITC-labeled annexin V (Clontech, Palo Alto, Calif., USA) according to the manufacturer's instructions. Annexin V-FITC-labeled cells were counted using a FAC Star Plus flow cytometer (Becton-Dickenson, Waltham, Mass., USA). For each treatment 15,000 cells were counted and stored in listmode.

HEK 293 cells = experiment: Annexin V-FITC apoptosis assay; type: cell-based, human; details: 15 μg/ml
Method: as §1

Caspase-3 in C-PAE cells = experiment: Caspase-3 assay; type: cell-based, bovine; details: 20 μg/ml Tumstatin; TNF-α positive control
αvβ3 integrin protein = biological target: T1, αvβ3 integrin protein (Homo sapiens, UniProt P05106+P06756); experiment: Competition proliferation assay with soluble αvβ3 protein, WM-164 cells; type: cell-based; details: αvβ3 protein at 2 μg/ml
T1 construct: purchased CHEMICON Int'l, Temecula, Calif., USA
Method: αvβ3 was then tested for its ability to negate the anti-proliferative effect of Tum-4 on melanoma cells. Tumstatin and Tum-4 were pre-incubated for 30 minutes at room temperature with αvβ3 integrin protein, then added to WM-164 cells grown in 96-well plates. After 48 hours of incubation, the increase in cell number was determined by methylene blue staining. Tumstatin had no effect on WM-164 cells.

T1 sequence (P06756 31-889 limits assumed): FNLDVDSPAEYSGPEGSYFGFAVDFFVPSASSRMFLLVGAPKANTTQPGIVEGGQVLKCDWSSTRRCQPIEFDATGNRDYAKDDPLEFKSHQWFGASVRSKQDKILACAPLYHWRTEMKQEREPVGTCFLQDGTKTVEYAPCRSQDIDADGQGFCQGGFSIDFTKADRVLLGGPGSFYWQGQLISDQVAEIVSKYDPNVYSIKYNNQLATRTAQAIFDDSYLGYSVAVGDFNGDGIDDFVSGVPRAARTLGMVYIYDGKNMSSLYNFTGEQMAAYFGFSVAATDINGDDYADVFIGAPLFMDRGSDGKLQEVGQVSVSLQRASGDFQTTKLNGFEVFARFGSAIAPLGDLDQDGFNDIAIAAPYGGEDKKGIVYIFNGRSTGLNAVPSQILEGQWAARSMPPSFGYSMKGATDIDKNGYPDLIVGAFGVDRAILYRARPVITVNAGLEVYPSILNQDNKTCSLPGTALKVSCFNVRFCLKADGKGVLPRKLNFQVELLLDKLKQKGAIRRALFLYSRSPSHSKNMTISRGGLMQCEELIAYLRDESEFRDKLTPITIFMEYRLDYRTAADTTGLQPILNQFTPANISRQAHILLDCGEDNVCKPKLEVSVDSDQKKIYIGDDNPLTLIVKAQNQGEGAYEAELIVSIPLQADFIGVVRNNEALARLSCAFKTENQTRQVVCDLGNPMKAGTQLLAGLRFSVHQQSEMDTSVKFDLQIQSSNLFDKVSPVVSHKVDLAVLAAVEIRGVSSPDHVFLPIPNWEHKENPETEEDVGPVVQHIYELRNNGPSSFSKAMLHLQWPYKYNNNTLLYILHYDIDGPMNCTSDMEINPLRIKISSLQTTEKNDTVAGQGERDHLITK
T1 sequence (P06756 891-1048 partner limits assumed): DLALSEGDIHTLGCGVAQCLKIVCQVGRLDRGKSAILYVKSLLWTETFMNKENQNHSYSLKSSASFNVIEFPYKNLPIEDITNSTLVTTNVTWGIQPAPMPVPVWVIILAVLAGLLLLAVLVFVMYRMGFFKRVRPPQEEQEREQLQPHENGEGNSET
T1 sequence (P05106 27-788): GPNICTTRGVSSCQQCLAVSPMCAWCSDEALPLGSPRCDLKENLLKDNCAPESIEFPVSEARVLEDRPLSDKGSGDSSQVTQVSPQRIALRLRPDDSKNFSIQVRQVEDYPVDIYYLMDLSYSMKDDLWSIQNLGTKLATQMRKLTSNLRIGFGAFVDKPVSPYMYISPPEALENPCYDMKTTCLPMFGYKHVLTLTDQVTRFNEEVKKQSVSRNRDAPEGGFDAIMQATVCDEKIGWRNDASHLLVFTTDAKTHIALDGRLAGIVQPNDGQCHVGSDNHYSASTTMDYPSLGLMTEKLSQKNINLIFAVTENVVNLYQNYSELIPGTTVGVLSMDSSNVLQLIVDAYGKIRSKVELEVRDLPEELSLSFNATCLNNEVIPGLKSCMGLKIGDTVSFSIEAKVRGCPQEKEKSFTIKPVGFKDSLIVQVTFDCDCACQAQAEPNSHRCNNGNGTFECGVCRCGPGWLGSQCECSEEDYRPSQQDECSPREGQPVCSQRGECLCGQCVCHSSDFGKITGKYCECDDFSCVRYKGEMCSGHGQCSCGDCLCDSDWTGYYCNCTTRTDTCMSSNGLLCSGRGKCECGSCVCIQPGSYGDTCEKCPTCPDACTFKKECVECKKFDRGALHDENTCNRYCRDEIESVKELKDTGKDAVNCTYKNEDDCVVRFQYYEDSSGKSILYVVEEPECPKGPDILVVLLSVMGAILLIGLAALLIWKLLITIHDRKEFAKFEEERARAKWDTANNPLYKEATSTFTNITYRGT

LQRFTTMPFLFCNVNDVCNF [T3]
maximal inhibition of protein synthesis (C-PAE cells [1]; 22.7 μM): about 45%

B1: endostatin: tumor associated angiogenesis inhibitor used as comparator (protein, UniProt P39060 1572-1754, looked up)
Endostatin: HSHRDFQPVLHLVALNSPLSGGMRGIRGADFQCFQQARAVGLAGTFRAFLSSRLQDLYSIVRRADRAAVPIVNLKDELLFPSWEALFSGSEGPLKPGARIFSFDGKDVLRHPTWPQKSVWHGSDPNGRRLTESYCETWRTEAPSATGQASSLLGGRLLGQSAASCHHAYIVLCIENSFMTASK
modifications: Endostatin
inhibition of protein synthesis (C-PAE cells [1]; 4.5 μM, 24 hours of serum stimulation, rapamycin 100 ng/ml): did not inhibit protein synthesis | IC50, inhibition of cell cycle progression (C-PAE cells [2]): no activity

B2: Tum-1: residues 54 to 244 of Tumstatin, lacking the N-terminal 53 amino acids (SEQ ID NO:22) (protein)
chain: QRAHGQDLGTLGSCLQRFTTMPFLFCNVNDVCNFASRNDYSYWLSTPALMPMNMAPITGRALEPYISRCTVCEGPAIAIAVHSQTTDIPPCPHGWISLWKGFSFIMFTSAGSEGTGQALASPGSCLEEFRASPFLECHGRGTCNYYSNSYSFWLASLNPERMFRKPIPSTVKAGELEKIISRCQVCMKKRH
modifications: Tum-1 (Tumstatin N-53) (amino acids 54-244 of SEQ ID NO10)
IC50, inhibition of cell cycle progression (C-PAE cells [2]): about 5 μg/ml

B3: Tumstatin-44-131: residues 44 to 131 of full-length Tumstatin (SEQ ID NO:33) (protein)
chain: FSFLFVQGNQRAHGQDLGTLGSCLQRFTTMPFLFCNVNDVCNFASRNDYSYWLSTPALMPMNMAPITGRALEPYISRCTVCEGPAIAI
modifications: Tumstatin-45-132 (amino acids 45-132 of SEQ ID NO10)
incorporation of BrdU (C-PAE cells [3]): decreased incorporation of BrdU

B4: Canstatin: NC1 domain of the α2 chain of Type IV collagen (SEQ ID NO:6) (protein, listed as Homo sapiens)
chain: VSIGYLLVKHSQTDQEPMCPVGMNKLWSGYSLLYFEGQEKAHNQDLGLAGSCLARFSTMPFLYCNPGDVCYYASRNDKSYWLSTTAPLPMMPVAEDEIKPYISRCSVCEAPAIAIAVHSQDVSIPHCPAGWRSLWIGYSFLMHTAAGDEGGGQSLVSPGSCLEDFRATPFIECNGGRGTCHYYANKYSFWLTTIPEQSFQGSPSADTLKAGLIRTHISRCQVCMKNL
apoptosis of PC-3 cells (PC-3 cells): no significant effect | apoptosis of 786-O cells (786-O cells): no significant effect | apoptosis of HEK 293 cells (HEK 293 cells): no significant effect

B5: Tumstatin: NC1 domain of the α3 chain of type IV collagen, residues 1-244 (SEQ ID NO:10) (protein, listed as Homo sapiens)
chain: GLKGKRGDSGSPATWTTRGFVFTRHSQTTAIPSCPEGTVPLYSGFSFLFVQGNQRAHGQDLGTLGSCLQRFTTMPFLFCNVNDVCNFASRNDYSYWLSTPALMPMNMAPITGRALEPYISRCTVCEGPAIAIAVHSQTTDIPPCPHGWISLWKGFSFIMFTSAGSEGTGQALASPGSCLEEFRASPFLECHGRGTCNYYSNSYSFWLASLNPERMFRKPIPSTVKAGELEKIISRCQVCMKKRH
incorporation of BrdU (C-PAE cells [3]): decreased incorporation of BrdU | apoptosis of PC-3 cells (PC-3 cells): not observed | fold increase in Caspase-3 activity (Caspase-3 in C-PAE cells): 1.6 fold

B6: Tum-4: residues 181 to 244 of Tumstatin (SEQ ID NO:25) (protein)
chain: EFRASPFLECHGRGTCNYYSNSYSFWLASLNPERMFRKPIPSTVKAGELEKIISRCQVCMKKRH
modifications: Tum-4 (amino acids 181-244 of SEQ ID NO10)
recovery of anti-proliferative effect by soluble αvβ3 protein (αvβ3 integrin protein): 76.7%
